Results on one molecule are retold here after article PMC5807433, “PP5 (PPP5C) is a phosphatase of Dvl2” (Scientific Reports, 2018).

This assay concerns the target T1, FLAG-Dvl2 (full-length human Dishevelled 2) (human, UniProt O14641 1-736).
T1 construct: Dishevelled 2 (Dvl2), human, full length; also called FLAG-tagged Dvl2; full-length Dvl2; source: HEK293T, transfected (pCS2+), in lysate; also purified from transfected HEK293T with FLAG M2 beads and eluted with FLAG peptide; not shown: FLAG, N-terminal, kept
T1 sequence (looked up): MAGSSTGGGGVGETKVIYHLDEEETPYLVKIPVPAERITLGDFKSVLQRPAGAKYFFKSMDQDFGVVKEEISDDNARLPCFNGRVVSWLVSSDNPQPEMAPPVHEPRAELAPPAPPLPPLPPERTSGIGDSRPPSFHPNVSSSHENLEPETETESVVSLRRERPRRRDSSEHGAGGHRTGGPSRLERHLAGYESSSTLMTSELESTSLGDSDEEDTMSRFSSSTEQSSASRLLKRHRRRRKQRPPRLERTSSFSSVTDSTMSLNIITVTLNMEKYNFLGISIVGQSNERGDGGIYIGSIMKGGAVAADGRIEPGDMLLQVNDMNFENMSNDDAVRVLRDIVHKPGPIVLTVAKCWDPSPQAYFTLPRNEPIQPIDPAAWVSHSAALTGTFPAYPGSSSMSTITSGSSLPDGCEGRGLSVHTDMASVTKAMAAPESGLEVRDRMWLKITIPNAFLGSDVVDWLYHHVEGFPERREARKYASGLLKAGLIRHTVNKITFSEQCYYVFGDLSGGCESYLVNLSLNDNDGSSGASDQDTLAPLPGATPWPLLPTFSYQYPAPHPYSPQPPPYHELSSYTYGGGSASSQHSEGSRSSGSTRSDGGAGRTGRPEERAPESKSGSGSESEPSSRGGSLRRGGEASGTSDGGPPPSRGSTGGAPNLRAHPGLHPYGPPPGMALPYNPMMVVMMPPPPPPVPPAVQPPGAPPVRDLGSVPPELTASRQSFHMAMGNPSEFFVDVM
The assay can be described thus: pull-down; GST pull-down: FLAG-Dvl2 purified from transfected HEK293T incubated with PP5 protein purified from E. coli and Glutathione Sepharose 4B beads; GST as negative control. The conditions noted are these: both partners purified.

B1: GST-PP5 (wild type) (enzyme, human, UniProt P53041 1-499, looked up)
chain: MAMAEGERTECAEPPRDEPPADGALKRAEELKTQANDYFKAKDYENAIKFYSQAIELNPSNAIYYGNRSLAYLRTECYGYALGDATRAIELDKKYIKGYYRRAASNMALGKFRAALRDYETVVKVKPHDKDAKMKYQECNKIVKQKAFERAIAGDEHKRSVVDSLDIESMTIEDEYSGPKLEDGKVTISFMKELMQWYKDQKKLHRKCAYQILVQVKEVLSKLSTLVETTLKETEKITVCGDTHGQFYDLLNIFELNGLPSETNPYIFNGDFVDRGSFSVEVILTLFGFKLLYPDHFHLLRGNHETDNMNQIYGFEGEVKAKYTAQMYELFSEVFEWLPLAQCINGKVLIMHGGLFSEDGVTLDDIRKIERNRQPPDSGPMCDLLWSDPQPQNGRSISKRGVSCQFGPDVTKAFLEENNLDYIIRSHEVKAEGYEVAHGGRCVTVFSAPNYCDQMGNKASYIHLQGSDLRPQFHQFTAVPHPNVKPMAYANTLLQLGMM
notes: Protein phosphatase 5 (PP5, PPP5C), wild type; Probably full length; also called PP5 protein purified from E. coli; bacterially expressed and purified PP5; source: E. coli BL21 (pPGH vector, IPTG), purified with Glutathione Sepharose 4B beads; not shown: GST, N-terminal, kept
Consider B1, for which the binding result was “binds”.
